According to patent US20160272693A1 (ZEALAND PHARMA A S, published 2016):
*1 amine or outer side, *2 acyl side, *3 side chain or, on linkers, in order; H or OH if unused. Bridges are numbered along the chain shown (N, C = ends). [ ]: non-standard residue; d: D form. The star is where a group is joined. C20 diacid = O=C(O)CCCCCCCCCCCCCCCCCCC(=O)*; γGlu = O=C(O)[C@H](CCC(=O)[*:2])N[*:1]; Hyp = O=C(O)[C@@H]1C[C@@H](O)CN1; NMeI = CC[C@H](C)[C@H](NC)C(=O)O; Sar = CNCC(=O)O

B1: [19CD]-isoGlu-R-C( )-NTAT-C( )-ATQRLAHFLHRSVF-Gly(Me)-A-Ile(Me)-LSSTEVGSETP-NH2 (Compd. 20) (peptide)
peptide: {C20 diacid-γGlu}-RCNTATCATQRLAHFLHRSVF[Sar]A[NMeI]LSSTEVGSETP-NH2
modifications: disulfide 2-7
SMILES: CC[C@H](C)[C@@H](C(=O)N[C@@H](CC(C)C)C(=O)N[C@@H](CO)C(=O)N[C@@H](CO)C(=O)N[C@H](C(=O)N[C@@H](CCC(=O)O)C(=O)N[C@H](C(=O)NCC(=O)N[C@@H](CO)C(=O)N[C@@H](CCC(=O)O)C(=O)N[C@H](C(=O)N1CCC[C@H]1C(N)=O)[C@@H](C)O)C(C)C)[C@@H](C)O)N(C)C(=O)[C@H](C)NC(=O)CN(C)C(=O)[C@H](Cc1ccccc1)NC(=O)[C@@H](NC(=O)[C@H](CO)NC(=O)[C@H](CCCNC(=N)N)NC(=O)[C@H](Cc1c[nH]cn1)NC(=O)[C@H](CC(C)C)NC(=O)[C@H](Cc1ccccc1)NC(=O)[C@H](Cc1c[nH]cn1)NC(=O)[C@H](C)NC(=O)[C@H](CC(C)C)NC(=O)[C@H](CCCNC(=N)N)NC(=O)[C@H](CCC(N)=O)NC(=O)[C@@H](NC(=O)[C@H](C)NC(=O)[C@@H]1CSSC[C@H](NC(=O)[C@H](CCCNC(=N)N)NC(=O)CC[C@H](NC(=O)CCCCCCCCCCCCCCCCCCC(=O)O)C(=O)O)C(=O)N[C@@H](CC(N)=O)C(=O)N[C@@H]([C@@H](C)O)C(=O)N[C@@H](C)C(=O)N[C@@H]([C@@H](C)O)C(=O)N1)[C@@H](C)O)C(C)C
B2: [19CD]-isoGlu-R-C( )-GTAT-C( )-ATERLAHFLTRSSF-Gly(Me)-A-Ile(Me)-LSSTEVGSNT-Hyp-NH2 (Compd. 18) (peptide)
peptide: {C20 diacid}-[γGlu]RCGTATCATERLAHFLTRSSF[Sar]A[NMeI]LSSTEVGSNT[Hyp]-NH2
modifications: disulfide 3-8
SMILES: CC[C@H](C)[C@@H](C(=O)N[C@@H](CC(C)C)C(=O)N[C@@H](CO)C(=O)N[C@@H](CO)C(=O)N[C@H](C(=O)N[C@@H](CCC(=O)O)C(=O)N[C@H](C(=O)NCC(=O)N[C@@H](CO)C(=O)N[C@@H](CC(N)=O)C(=O)N[C@H](C(=O)N1C[C@H](O)C[C@H]1C(N)=O)[C@@H](C)O)C(C)C)[C@@H](C)O)N(C)C(=O)[C@H](C)NC(=O)CN(C)C(=O)[C@H](Cc1ccccc1)NC(=O)[C@H](CO)NC(=O)[C@H](CO)NC(=O)[C@H](CCCNC(=N)N)NC(=O)[C@@H](NC(=O)[C@H](CC(C)C)NC(=O)[C@H](Cc1ccccc1)NC(=O)[C@H](Cc1c[nH]cn1)NC(=O)[C@H](C)NC(=O)[C@H](CC(C)C)NC(=O)[C@H](CCCNC(=N)N)NC(=O)[C@H](CCC(=O)O)NC(=O)[C@@H](NC(=O)[C@H](C)NC(=O)[C@@H]1CSSC[C@H](NC(=O)[C@H](CCCNC(=N)N)NC(=O)CC[C@H](NC(=O)CCCCCCCCCCCCCCCCCCC(=O)O)C(=O)O)C(=O)NCC(=O)N[C@@H]([C@@H](C)O)C(=O)N[C@@H](C)C(=O)N[C@@H]([C@@H](C)O)C(=O)N1)[C@@H](C)O)[C@@H](C)O
B3: [19CD]-isoGlu-R-C( )-GTAT-C( )-ATERLANFLVRSSF-Gly(Me)-A-Ile(Me)-LSSTEVGSNT-Hyp-NH2 (Compd. 17) (peptide)
peptide: {C20 diacid-γGlu}-RCGTATCATERLANFLVRSSF[Sar]A[NMeI]LSSTEVGSNT[Hyp]-NH2
modifications: disulfide 2-7
SMILES: CC[C@H](C)[C@@H](C(=O)N[C@@H](CC(C)C)C(=O)N[C@@H](CO)C(=O)N[C@@H](CO)C(=O)N[C@H](C(=O)N[C@@H](CCC(=O)O)C(=O)N[C@H](C(=O)NCC(=O)N[C@@H](CO)C(=O)N[C@@H](CC(N)=O)C(=O)N[C@H](C(=O)N1C[C@H](O)C[C@H]1C(N)=O)[C@@H](C)O)C(C)C)[C@@H](C)O)N(C)C(=O)[C@H](C)NC(=O)CN(C)C(=O)[C@H](Cc1ccccc1)NC(=O)[C@H](CO)NC(=O)[C@H](CO)NC(=O)[C@H](CCCNC(=N)N)NC(=O)[C@@H](NC(=O)[C@H](CC(C)C)NC(=O)[C@H](Cc1ccccc1)NC(=O)[C@H](CC(N)=O)NC(=O)[C@H](C)NC(=O)[C@H](CC(C)C)NC(=O)[C@H](CCCNC(=N)N)NC(=O)[C@H](CCC(=O)O)NC(=O)[C@@H](NC(=O)[C@H](C)NC(=O)[C@@H]1CSSC[C@H](NC(=O)[C@H](CCCNC(=N)N)NC(=O)CC[C@H](NC(=O)CCCCCCCCCCCCCCCCCCC(=O)O)C(=O)O)C(=O)NCC(=O)N[C@@H]([C@@H](C)O)C(=O)N[C@@H](C)C(=O)N[C@@H]([C@@H](C)O)C(=O)N1)[C@@H](C)O)C(C)C
B4: [19CD]-isoGlu-R-C( )-GTAT-C( )-ATERLAHFLKRSSF-Gly(Me)-A-Ile(Me)-LSSTEVGSNT-Hyp-NH2 (Compd. 19) (peptide)
peptide: {C20 diacid}-[γGlu]RCGTATCATERLAHFLKRSSF[Sar]A[NMeI]LSSTEVGSNT[Hyp]-NH2
modifications: disulfide 3-8
SMILES: CC[C@H](C)[C@@H](C(=O)N[C@@H](CC(C)C)C(=O)N[C@@H](CO)C(=O)N[C@@H](CO)C(=O)N[C@H](C(=O)N[C@@H](CCC(=O)O)C(=O)N[C@H](C(=O)NCC(=O)N[C@@H](CO)C(=O)N[C@@H](CC(N)=O)C(=O)N[C@H](C(=O)N1C[C@H](O)C[C@H]1C(N)=O)[C@@H](C)O)C(C)C)[C@@H](C)O)N(C)C(=O)[C@H](C)NC(=O)CN(C)C(=O)[C@H](Cc1ccccc1)NC(=O)[C@H](CO)NC(=O)[C@H](CO)NC(=O)[C@H](CCCNC(=N)N)NC(=O)[C@H](CCCCN)NC(=O)[C@H](CC(C)C)NC(=O)[C@H](Cc1ccccc1)NC(=O)[C@H](Cc1c[nH]cn1)NC(=O)[C@H](C)NC(=O)[C@H](CC(C)C)NC(=O)[C@H](CCCNC(=N)N)NC(=O)[C@H](CCC(=O)O)NC(=O)[C@@H](NC(=O)[C@H](C)NC(=O)[C@@H]1CSSC[C@H](NC(=O)[C@H](CCCNC(=N)N)NC(=O)CC[C@H](NC(=O)CCCCCCCCCCCCCCCCCCC(=O)O)C(=O)O)C(=O)NCC(=O)N[C@@H]([C@@H](C)O)C(=O)N[C@@H](C)C(=O)N[C@@H]([C@@H](C)O)C(=O)N1)[C@@H](C)O
B5: [19CD]-isoGlu-R-C( )-GTAT-C( )-ATERLAHFLHRSSF-Gly(Me)-A-Ile(Me)-LSSTEVGSNTP-NH2 (Compd. 15) (peptide)
peptide: {C20 diacid}-[γGlu]RCGTATCATERLAHFLHRSSF[Sar]A[NMeI]LSSTEVGSNTP-NH2
modifications: disulfide 3-8
SMILES: CC[C@H](C)[C@@H](C(=O)N[C@@H](CC(C)C)C(=O)N[C@@H](CO)C(=O)N[C@@H](CO)C(=O)N[C@H](C(=O)N[C@@H](CCC(=O)O)C(=O)N[C@H](C(=O)NCC(=O)N[C@@H](CO)C(=O)N[C@@H](CC(N)=O)C(=O)N[C@H](C(=O)N1CCC[C@H]1C(N)=O)[C@@H](C)O)C(C)C)[C@@H](C)O)N(C)C(=O)[C@H](C)NC(=O)CN(C)C(=O)[C@H](Cc1ccccc1)NC(=O)[C@H](CO)NC(=O)[C@H](CO)NC(=O)[C@H](CCCNC(=N)N)NC(=O)[C@H](Cc1c[nH]cn1)NC(=O)[C@H](CC(C)C)NC(=O)[C@H](Cc1ccccc1)NC(=O)[C@H](Cc1c[nH]cn1)NC(=O)[C@H](C)NC(=O)[C@H](CC(C)C)NC(=O)[C@H](CCCNC(=N)N)NC(=O)[C@H](CCC(=O)O)NC(=O)[C@@H](NC(=O)[C@H](C)NC(=O)[C@@H]1CSSC[C@H](NC(=O)[C@H](CCCNC(=N)N)NC(=O)CC[C@H](NC(=O)CCCCCCCCCCCCCCCCCCC(=O)O)C(=O)O)C(=O)NCC(=O)N[C@@H]([C@@H](C)O)C(=O)N[C@@H](C)C(=O)N[C@@H]([C@@H](C)O)C(=O)N1)[C@@H](C)O

Molecular target: T1, human amylin receptor 3 (hAMYR3), hCTR2 co-expressed with human receptor activity modifying protein 3 (hRAMP3) (human, UniProt P30988 25-474; O60896 24-148)
T1 sequence (looked up) 1: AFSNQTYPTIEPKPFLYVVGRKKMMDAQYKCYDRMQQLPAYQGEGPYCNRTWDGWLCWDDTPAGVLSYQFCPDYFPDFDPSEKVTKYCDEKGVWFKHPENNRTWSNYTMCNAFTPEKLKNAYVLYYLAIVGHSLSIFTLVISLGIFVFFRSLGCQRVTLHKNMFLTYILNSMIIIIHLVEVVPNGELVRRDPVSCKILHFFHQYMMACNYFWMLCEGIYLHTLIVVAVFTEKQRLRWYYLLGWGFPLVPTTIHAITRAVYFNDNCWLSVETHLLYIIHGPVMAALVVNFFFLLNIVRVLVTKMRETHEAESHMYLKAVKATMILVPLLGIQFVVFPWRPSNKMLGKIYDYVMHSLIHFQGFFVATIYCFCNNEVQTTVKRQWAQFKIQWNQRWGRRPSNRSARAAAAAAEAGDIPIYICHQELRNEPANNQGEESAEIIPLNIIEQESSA
T1 sequence (looked up) 2: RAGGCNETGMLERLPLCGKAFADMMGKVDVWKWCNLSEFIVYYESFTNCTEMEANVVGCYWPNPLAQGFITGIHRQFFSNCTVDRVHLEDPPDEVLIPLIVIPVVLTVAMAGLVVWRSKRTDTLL
Experiment: cell-based or functional assay

Row | Binder | hAMYR3 EC50 (nM); cAMP induction [nM]
1 | B1 | 0.33
2 | B2 | 0.41
3 | {C20 diacid-γGlu}-RCNTATCATQRLAHFLHRSSF[Sar]A[NMeI]LSSTEVGSETP-NH2 (disulfide 2-7) [[19CD]-isoGlu-R-C( )-NTAT-C( )-ATQRLAHFLHRSSF-Gly(Me)-A-Ile(Me)-LSSTEVGSETP-NH2 (Compd. 2)] | 0.12
4 | B3 | 0.61
5 | B4 | 0.28
6 | B5 | 0.079
7 | {C20 diacid-γGlu}-RCNTATCATQRLAHFLHRSSF[Sar]A[NMeI]LSSTEVGSNTP-NH2 (disulfide 2-7) [[19CD]-isoGlu-R-C( )-NTAT-C( )-ATQRLAHFLHRSSF-Gly(Me)-A-Ile(Me)-LSSTEVGSNTP-NH2 (Compd. 16)] | 0.11
